Data as given in paper PMC12140327, “Structural and Biochemical Characterization of a Widespread Enterobacterial Peroxidase Encapsulin” (Advanced Science, 2025).
Where “and” joins values, the source holds several entries; their conditions need not be identical. Equal values may be shown once. One block for each molecule: values may come before it.

How the values were obtained:
[1] = target: T1, EncDyP (Escherichia coli, UniProt A0A5C9AJY8); assay: ABTS oxidation at […] nm, plate reader; format: biochemical; conditions: H2O2 as co-substrate; 50 mM phosphate citrate pH 4.6-7.6; room temperature
T1 construct: gene FPI65_30880; DyP-loaded T=1 encapsulin shell (60 Enc, about 3-5 DyP hexamers per shell); staggered co-expression in E. coli BL21(DE3), DyP in pCDFDuet-1, Enc in pBAD/HisA; no tag stated; DyP C-terminal residue K348; with Type 1 encapsulin shell protein

[2] = target: T1, EncDyP; assay: in-gel peroxidase activity stain (native PAGE, ferricyanide); format: biochemical; conditions: H2O2 0.003%; DAB in Tris-saline pH 7.5
[3] = target: encapsulin shell protein (Enc) of the enterobacterial DyP encapsulin operon (E. coli); assay: cryo-EM 2D class averages after shell subtraction; purified EncDyP from staggered expression of DyP (PT7) and Enc (PBAD)
[4] = target: encapsulin shell protein (Enc) of the enterobacterial DyP encapsulin operon (E. coli); assay: cryo-EM 2D class averages after shell subtraction; purified EncDyP from a two-gene operon under the T7 promoter
[5] = target: encapsulin shell protein (Enc) of the enterobacterial DyP encapsulin operon (E. coli); assay: cryo-EM structure; purified EncDyP from staggered co-expression, 2.8 mg/mL in 150 mM NaCl, 20 mM Tris pH 7.5; icosahedral symmetry imposed
[6] = target: free His6-tagged Dye-decolorizing peroxidase (DyP); assay: SEC; Superdex S-200, 150 mM NaCl, 20 mM Tris pH 7.5; heme followed by absorption at 404 nm
[7] = target: free His6-tagged Dye-decolorizing peroxidase (DyP); assay: cryo-EM structure; purified free DyP, 0.5 mg/mL in 150 mM NaCl, 20 mM Tris pH 7.5; D3 symmetry imposed

Molecule: CCn1c(=NN=c2sc3cc(S(=O)(=O)O)ccc3n2CC)sc2cc(S(=O)(=O)O)ccc21 [ABTS]
- ABTS oxidation at 420 nm, plate reader [1]: Peroxidase activity increased at a comparable rate for both free and encapsulated DyP

Molecule: Nc1ccc(-c2ccc(N)c(N)c2)cc1N [DAB]
- in-gel peroxidase activity stain (native PAGE, ferricyanide) [2]: in‐gel peroxidase activity staining using ferricyanide which confirmed the encapsulation of catalytically active DyP

Molecule: Dye-decolorizing peroxidase (DyP) cargo, co-expressed with Enc and encapsulated (enzyme)
- DyP hexamers per shell (DyP hexamers per shell) [3]: 3 and 5
- DyP hexamers per shell (hexamer per shell) [4]: < 1

- stoichiometry N [5]: 60
Molecule: encapsulin shell protein (Enc) of the enterobacterial DyP encapsulin operon (natural protein)

Molecule: free His6-tagged Dye-decolorizing peroxidase (DyP) (enzyme)
- stoichiometry N [6]: 6
- stoichiometry N [7]: 6
